Assay results published in PMC9510068.

Target: Bac S-2P (S-2P from the baculovirus-insect cell expression system, TN-5B1-4 cells) (SARS-CoV-2)
Experiment: negative-stain EM

**Q.** Which stoichiometry N does the source give for “Bac S-2P (S-2P from the baculovirus-insect cell expression system, TN-5B1-4 cells) (domain or fragment)” here?
**A.** 3
